± gives the standard deviation of the averaged measurements.
Tested on: Saccharomyces cerevisiae
Assay: protein stability index of tFT-peptide fusion (C-terminal peptide) (PSI (0-1 scale)); higher = more stable (slower turnover)
Conditions: temperature: 30 C
Description: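 MPS profiling in S. cerevisiae of the yeast C-terminome library: the last 12 aa of each annotated ORF are fused to the C-terminus of a sfGFP-mCherry timer, after a GGGS linker. Cells are FACS-sorted into 8 mCherry/sfGFP bins and deep-sequenced. PSI runs from 0 (unstable) to 1 (stable); wild type and das1Δ backgrounds, two technical replicates each.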

[1] = genetic background: das1 deletion

Sequence	protein stability index [1]	protein stability index (genetic background: wild type)
LKSLKKNLTRDR [MTF2 C-terminal 12 aa]	0.722 ± 0.033	0.6605 ± 0.0051
SAIYLLIFRSTR [YPR177C C-terminal 12 aa]	0.56459 ± 0.00029	0.569 ± 0.018
TPSKEINFDDDF [RNR4 C-terminal 12 aa]	0.72 ± 0.011	0.723 ± 0.041
RMVDKVEGSFSR [YDR109C C-terminal 12 aa]	0.7218 ± 0.0071	0.701 ± 0.028
IDNPEACEMCSG [RNR1 C-terminal 12 aa]	0.702 ± 0.022	0.694 ± 0.027
LSEEALSTCCCS [YJL118W C-terminal 12 aa]	0.7528 ± 0.0039	0.738 ± 0.047
FFLRSAAVYQPF [YPR197C C-terminal 12 aa]	0.6949 ± 0.003	0.6815 ± 0.0047
LEEELTKIGLLP [GRX8 C-terminal 12 aa]	0.706 ± 0.018	0.698 ± 0.0098
YPQQLLGYTDNG [YKL115C C-terminal 12 aa]	0.628 ± 0.013	0.597 ± 0.0073
RLLSLWEVFQMA [RPC82 C-terminal 12 aa]	0.646 ± 0.027	0.6182 ± 0.0037
ITSKPPATVEWE [GUA1 C-terminal 12 aa]	0.695 ± 0.01	0.726 ± 0.015
FTPSYIPEPVLL [YOR161W-B C-terminal 12 aa]	0.671 ± 0.012	0.654 ± 0.013
RLWSRKEFRLGT [SNU71 C-terminal 12 aa]	0.7 ± 0.017	0.7 ± 0.029
WEAYLRRCGQQN [URA3 C-terminal 12 aa]	0.697 ± 0.032	0.658 ± 0.018
TKPNNGLNITNY [MTL1 C-terminal 12 aa]	0.689 ± 0.019	0.716 ± 0.046
DQLEDTSSHDEL [MPD2 C-terminal 12 aa]	0.7476 ± 0.0003	0.7 ± 0.025
LESADKKKDVKA [DUS1 C-terminal 12 aa]	0.692 ± 0.0088	0.713 ± 0.015
DLLDKDVLLISE [CDC7 C-terminal 12 aa]	0.706 ± 0.0095	0.6734 ± 0.0014
FLLTASRGIAQF [YBR116C C-terminal 12 aa]	0.6752 ± 0.0048	0.74 ± 0.088
AGSSKFLKGAKI [MRS1 C-terminal 12 aa]	0.707 ± 0.037	0.673 ± 0.0098
IKQRELNAADKC [MAL11 C-terminal 12 aa]	0.696 ± 0.0096	0.6741 ± 0.0048

Sequence	protein stability index [1]	protein stability index (genetic background: wild type)
KEFQNSDIADLY [SGV1 C-terminal 12 aa]	0.714 ± 0.01	0.686 ± 0.017
TAFGISSCRDLA [YLR163W-A C-terminal 12 aa]	0.707 ± 0.016	0.6829 ± 0.00097
GDPIDLKEKKLN [RER2 C-terminal 12 aa]	0.705 ± 0.031	0.196 ± 0.032
EDIKQALKQATN [CYS3 C-terminal 12 aa]	0.6902 ± 0.0052	0.654 ± 0.023
KDSKNGASTLTS [YSW1 C-terminal 12 aa]	0.691 ± 0.041	0.672 ± 0.018
DGGLAGPVTVRD [FMP45 C-terminal 12 aa]	0.6903 ± 0.005	0.713 ± 0.048
ADVRYPNIDDYL [HCS1 C-terminal 12 aa]	0.73454 ± 6.5e-05	0.713 ± 0.048
FFNISVSTKISF [YER175W-A C-terminal 12 aa]	0.6797 ± 0.00033	0.659 ± 0.04
DEQGNELSPRNY [MID2 C-terminal 12 aa]	0.69199 ± 0.00026	0.723 ± 0.035
AKNGDYVKIEQP [YMR315W C-terminal 12 aa]	0.6792 ± 0.0039	0.729 ± 0.019
THMKPWYRRWFW [INA17 C-terminal 12 aa]	0.742 ± 0.012	0.718 ± 0.018
RVLNNLIVSHNK [MOT3 C-terminal 12 aa]	0.7102 ± 0.003	0.735 ± 0.078
TGFKDKFLDALL [PUT4 C-terminal 12 aa]	0.689 ± 0.014	0.69 ± 0.011
QIDKLLTVLDSL [RTP1 C-terminal 12 aa]	0.717 ± 0.023	0.691 ± 0.038
IRDILKLGHPTR [GYP8 C-terminal 12 aa]	0.699 ± 0.043	0.666 ± 0.034
AAAIAGAAALLL [DAN1 C-terminal 12 aa]	0.712 ± 0.013	0.732 ± 0.035
GNNKKKRSVKRE [PBN1 C-terminal 12 aa]	0.688 ± 0.013	0.717 ± 0.036
FKMCPFFISWFL [YBL073W C-terminal 12 aa]	0.6013 ± 0.0016	0.563 ± 0.032
STDETPDNENKQ [SGT2 C-terminal 12 aa]	0.6998 ± 0.0031	0.67 ± 0.0077
TIGWLQESLAGI [HOT1 C-terminal 12 aa]	0.706 ± 0.0076	0.684 ± 0.029

— the supplement of paper PMC10724198
